Assays:
[1] = molecular target: SARS-CoV-2 Wuhan spike protein trimer (AcroBiosystems) (SARS-CoV-2 (Wuhan)) (UniProt P0DTC2); experiment: ELISA; Wuhan spike 2 µg/mL coated; rCL-11 3 µg/mL with L-fucose or D-galactose (0 to 200 mM) or 20 mM EDTA, 18 h at 4 °C
[2] = molecular target: SARS-CoV-2 Wuhan spike protein trimer (AcroBiosystems) (SARS-CoV-2 (Wuhan)) (UniProt P0DTC2); experiment: ELISA; spike trimer (Wuhan or Omicron BA.1) or BSA coated on Nunc MaxiSorp plates in carbonate/bicarbonate buffer, 18 h at 4 °C; rCL-11 (CHO) in solution, either titrated on 2 µg/mL spike or 3 µg/mL on a range of spike; detected with rabbit anti-human CL-11 and HRP anti-rabbit IgG
[3] = molecular target: SARS-CoV-2 Omicron BA.1 spike protein trimer (AcroBiosystems) (SARS-CoV-2 (Omicron BA.1)) (UniProt P0DTC2); experiment: as above

Question: “recombinant collectin-11 (rCL-11), CHO-expressed (from UniProt Q9BWP8 26-271) (natural protein)” was tested. Which percent inhibition by L-fucose [1] did it give?
Answer: > 90%

Question: What about the EC50 [2] of the same substance?
Answer: 7.6 nM

Question: What about the EC50 [3] of the same substance?
Answer: 6 nM

From article PMC12582335
